Laboratory results taken from US20120014911.

B1: GST-tagged PKD2 (human, wild type) expressed in 293T cells and purified with glutathione beads (protein)
chain: MATAPSYPAGLPGSPGPGSPPPPGGLELQSPPPLLPQIPAPGSGVSFHIQIGLTREFVLLPAASELAHVKQLACSIVDQKFPECGFYGLYDKILLFKHDPTSANLLQLVRSSGDIQEGDLVEVVLSASATFEDFQIRPHALTVHSYRAPAFCDHCGEMLFGLVRQGLKCDGCGLNYHKRCAFSIPNNCSGARKRRLSSTSLASGHSVRLGTSESLPCTAEELSRSTTELLPRRPPSSSSSSSASSYTGRPIELDKMLLSKVKVPHTFLIHSYTRPTVCQACKKLLKGLFRQGLQCKDCKFNCHKRCATRVPNDCLGEALINGDVPMEEATDFSEADKSALMDESEDSGVIPGSHSENALHASEEEEGEGGKAQSSLGYIPLMRVVQSVRHTTRKSSTTLREGWVVHYSNKDTLRKRHYWRLDCKCITLFQNNTTNRYYKEIPLSEILTVESAQNFSLVPPGTNPHCFEIVTANATYFVGEMPGGTPGGPSGQGAEAARGWETAIRQALMPVILQDAPSAPGHAPHRQASLSISVSNSQIQENVDIATVYQIFPDEVLGSGQFGVVYGGKHRKTGRDVAVKVIDKLRFPTKQESQLRNEVAILQSLRHPGIVNLECMFETPEKVFVVMEKLHGDMLEMILSSEKGRLPERLTKFLITQILVALRHLHFKNIVHCDLKPENVLLASADPFPQVKLCDFGFARIIGEKSFRRSVVGTPAYLAPEVLLNQGYNRSLDMWSVGVIMYVSLSGTFPFNEDEDINDQIQNAAFMYPASPWSHISAGAIDLINNLLQVKMRKRYSVDKSLSHPWLQEYQTWLDLRELEGKMGERYITHESDDARWEQFAAEHPLPGSGLPTDRDLGGACPPQDHDMQGLAERISVL
B2: Myc-tagged human CK1ε immunopurified from 293T cells (protein)
chain: MELRVGNKYRLGRKIGSGSFGDIYLGANIASGEEVAIKLECVKTKHPQLHIESKFYKMMQGGVGIPSIKWCGAEGDYNVMVMELLGPSLEDLFNFCSRKFSLKTVLLLADQMISRIEYIHSKNFIHRDVKPDNFLMGLGKKGNLVYIIDFGLAKKYRDARTHQHIPYRENKNLTGTARYASINTHLGIEQSRRDDLESLGYVLMYFNLGSLPWQGLKAATKRQKYERISEKKMSTPIEVLCKGYPSEFSTYLNFCRSLRFDDKPDYSYLRQLFRNLFHRQGFSYDYVFDWNMLKFGAARNPEDVDRERREHEREERMGQLRGSATRALPPGPPTGATANRLRSAAEPVASTPASRIQPAGNTSPRAISRVDRERKVSMRLHRGAPANVSSSDLTGRQEVSRIPASQTSVPFDHLGK
B3: Myc-tagged human CK1α immunopurified from 293T cells (protein)
chain: MASSSGSKAEFIVGGKYKLVRKIGSGSFGDIYLAINITNGEEVAVKLESQKARHPQLLYESKLYKILQGGVGIPHIRWYGQEKDYNVLVMDLLGPSLEDLFNFCSRRFTMKTVLMLADQMISRIEYVHTKNFIHRDIKPDNFLMGIGRHCNKLFLIDFGLAKKYRDNRTRQHIPYREDKNLTGTARYASINAHLGIEQSRRDDMESLGYVLMYFNRTSLPWQGLKAATKKQKYEKISEKKMSTPVEVLCKGFPAEFAMYLNYCRGLRFEEAPDYMYLRQLFRILFRTLNHQYDYTFDWTMLKQKAAQQAASSSGQGQQAQTPTGKQTDKTKSNMKGF
B4: GST-tagged PKD3 (human) expressed in 293T cells (protein)
chain: MSANNSPPSAQKSVLPTAIPAVLPAASPCSSPKTGLSARLSNGSFSAPSLTNSRGSVHTVSFLLQIGLTRESVTIEAQELSLSAVKDLVCSIVYQKFPECGFFGMYDKILLFRHDMNSENILQLITSADEIHEGDLVEVVLSALATVEDFQIRPHTLYVHSYKAPTFCDYCGEMLWGLVRQGLKCEGCGLNYHKRCAFKIPNNCSGVRKRRLSNVSLPGPGLSVPRPLQPEYVALPSEESHVHQEPSKRIPSWSGRPIWMEKMVMCRVKVPHTFAVHSYTRPTICQYCKRLLKGLFRQGMQCKDCKFNCHKRCASKVPRDCLGEVTFNGEPSSLGTDTDIPMDIDNNDINSDSSRGLDDTEEPSPPEDKMFFLDPSDLDVERDEEAVKTISPSTSNNIPLMRVVQSIKHTKRKSSTMVKEGWMVHYTSRDNLRKRHYWRLDSKCLTLFQNESGSKYYKEIPLSEILRISSPRDFTNISQGSNPHCFEIITDTMVYFVGENNGDSSHNPVLAATGVGLDVAQSWEKAIRQALMPVTPQASVCTSPGQGKDHKDLSTSISVSNCQIQENVDISTVYQIFADEVLGSGQFGIVYGGKHRKTGRDVAIKVIDKMRFPTKQESQLRNEVAILQNLHHPGIVNLECMFETPERVFVVMEKLHGDMLEMILSSEKSRLPERITKFMVTQILVALRNLHFKNIVHCDLKPENVLLASAEPFPQVKLCDFGFARIIGEKSFRRSVVGTPAYLAPEVLRSKGYNRSLDMWSVGVIIYVSLSGTFPFNEDEDINDQIQNAAFMYPPNPWREISGEAIDLINNLLQVKMRKRYSVDKSLSHPWLQDYQTWLDLREFETRIGERYITHESDDARWEIHAYTHNLVYPKHFIMAPNPDDMEEDP
B5: GST-tagged PKD1 (human) expressed in 293T cells (protein)
chain: MSAPPVLRPPSPLLPVAAAAAAAAAALVPGSGPGPAPFLAPVAAPVGGISFHLQIGLSREPVLLLQDSSGDYSLAHVREMACSIVDQKFPECGFYGMYDKILLFRHDPTSENILQLVKAASDIQEGDLIEVVLSASATFEDFQIRPHALFVHSYRAPAFCDHCGEMLWGLVRQGLKCEGCGLNYHKRCAFKIPNNCSGVRRRRLSNVSLTGVSTIRTSSAELSTSAPDEPLLQKSPSESFIGREKRSNSQSYIGRPIHLDKILMSKVKVPHTFVIHSYTRPTVCQYCKKLLKGLFRQGLQCKDCRFNCHKRCAPKVPNNCLGEVTINGDLLSPGAESDVVMEEGSDDNDSERNSGLMDDMEEAMVQDAEMAMAECQNDSGEMQDPDPDHEDANRTISPSTSNNIPLMRVVQSVKHTKRKSSTVMKEGWMVHYTSKDTLRKRHYWRLDSKCITLFQNDTGSRYYKEIPLSEILSLEPVKTSALIPNGANPHCFEITTANVVYYVGENVVNPSSPSPNNSVLTSGVGADVARMWEIAIQHALMPVIPKGSSVGTGTNLHRDISVSISVSNCQIQENVDISTVYQIFPDEVLGSGQFGIVYGGKHRKTGRDVAIKIIDKLRFPTKQESQLRNEVAILQNLHHPGVVNLECMFETPERVFVVMEKLHGDMLEMILSSEKGRLPEHITKFLITQILVALRHLHFKNIVHCDLKPENVLLASADPFPQVKLCDFGFARIIGEKSFRRSVVGTPAYLAPEVLRNKGYNRSLDMWSVGVIIYVSLSGTFPFNEDEDIHDQIQNAAFMYPPNPWKEISHEAIDLINNLLQVKMRKRYSVDKTLSHPWLQDYQTWLDLRELECKIGERYITHESDDLRWEKYAGEQGLQYPTHLINPSASHSDTPETEETEMKALGERVSIL

Target: T1, GST-IFNAR1 (wild type): bacterially expressed cytoplasmic domain of IFNAR1 fused with GST, P17181
T1 chain: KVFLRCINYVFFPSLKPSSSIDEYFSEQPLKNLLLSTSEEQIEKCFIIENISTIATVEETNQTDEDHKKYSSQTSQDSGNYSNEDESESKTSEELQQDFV

Row | Protein | in vitro phosphorylation of GST-IFNAR1 on Ser535 (immunoblot with anti-pS535) | immunokinase assay: phosphorylation of GST-IFNAR1 on Ser535
1 | B1 | GST-tagged PKD2 expressed in 293T cells and purified by pull down with glutathione beads was capable of directly phosphorylating bacterially produced GST-IFNAR1 on Ser535 in vitro | –
2 | B2 | – | immunopurified human CK18, CK1E, and protozoan parasite L-CK1 were active against IFNAR1S535 in the immunokinase assay in vitro
3 | B3 | – | both immunopurified (FIG. 55C) and bacterially produced CK1α (FIG. 55E, lane 6) also phosphorylated GST4FNAR1 on Ser535 in vitro
4 | B4 | this outcome was not seen when either PKD1 or PKD3 were used as a source of kinase | –
5 | B5 | this outcome was not seen when either PKD1 or PKD3 were used as a source of kinase | –
